Laboratory results taken from patent US20260055182A1 (CIS BIOPHARMA, published 2026).
Numbering of substitutions follows the chain as printed. Names may count otherwise.

B1: LV1 (antibody, V domains shown)
VH: QVQLQQPGAELVKPGASVKLSCKASGYTFTGYYMHWVKQRPGHGLEWIGEINPSNGRTNYNERFKSKATLTVDKSSTTAFMQLSGLTSEDSAVYFCARDYYGTSYNFDYWGQGTTLTVSS
VL: DIQMTQSSSSFSVSLGDRVTITCKANEDINNRLAWYQQTPGNSPRLLISGATNLVTGVPSRFSGSGSGKDYTLTITSLQAEDFATYYCQQYWSTPFTFGSGTELEIKR
notes: CE7-VH-chimeric-WH33Y + CE7-VL-chimeric; chimeric CE7, human IgG1 kappa, L234A L235A P331S N297A; also called liability variant 1
B2: LV7 (antibody, V domains shown)
VH: B1 VH with Y33W
VL: B1 VL with W92Y
notes: CE7-VH-chimeric + CE7-VL-chimeric-WL92Y; chimeric CE7, human IgG1 kappa, L234A L235A P331S N297A; also called liability variant 7
B3: LV8 (antibody, V domains shown)
VH: B1 VH with Y33W
VL: B1 VL with W92F
notes: CE7-VH-chimeric + CE7-VL-chimeric-WL92F; chimeric CE7, human IgG1 kappa, L234A L235A P331S N297A; also called liability variant 8
B4: LV4 (antibody, V domains shown)
VH: B1 VH with Y33W, G56A
VL: B1 VL
notes: CE7-VH-chimeric-GH55A + CE7-VL-chimeric; chimeric CE7, human IgG1 kappa, L234A L235A P331S N297A; also called liability variant 4
B5: LV3 (antibody, V domains shown)
VH: B1 VH with Y33L
VL: B1 VL
notes: CE7-VH-chimeric-WH33L + CE7-VL-chimeric; chimeric CE7, human IgG1 kappa, L234A L235A P331S N297A; also called liability variant 3
B6: LV6 (antibody, V domains shown)
VH: B1 VH with Y33W
VL: B1 VL with N31A
notes: CE7-VH-chimeric + CE7-VL-chimeric-NL31A; chimeric CE7, human IgG1 kappa, L234A L235A P331S N297A; also called liability variant 6
B7: LV2 (antibody, V domains shown)
VH: B1 VH with Y33F
VL: B1 VL
notes: CE7-VH-chimeric-WH33F + CE7-VL-chimeric; chimeric CE7, human IgG1 kappa, L234A L235A P331S N297A; also called liability variant 2
B8: LV5 (antibody, V domains shown)
VH: B1 VH with Y33W
VL: B1 VL with N31L
notes: CE7-VH-chimeric + CE7-VL-chimeric-NL31L; chimeric CE7, human IgG1 kappa, L234A L235A P331S N297A; also called liability variant 5
B9: CE7-variant1 (antibody, V domains shown)
VH: QVQLVQSGAEVKKPGASVKVSCKASGYTFTGYWMHWVRQAPGQGLEWIGEINPSNGRTNYNERFKSRVTLTVDKSISTAYMELSRLRSDDTAVYFCARDYYGTSYNFDYWGQGTLVTVSS
VL: DIQMTQSPSSLSASVGDRVTITCKANEDINNRLAWYQQKPGKAPKLLISGATNLVTGVPSRFSGSGSGKDYTLTISSLQPEDFATYYCQQYWSTPFTFGQGTKLEIKR
notes: Human IgG1 kappa, L234A L235A P331S; also called CE7-12-VHA-1NL1-VLA; humanized variant 1
B10: CE7-variant13 (antibody, V domains shown)
VH: QVQLQQWGAGLLKPSETLSLTCAAYGYTFTGYWMHWIRQPPGKGLEWIGEINPSNGRTNYNERLKSRVTLSVDKSKNQASLKLSSVTAADTAVYFCARDYYGTSYNFDYWGQGTLVTVSS
VL: B9 VL
notes: Human IgG1 kappa, L234A L235A P331S; also called CE7-434-VHA-1NL1-VLA; humanized variant 13
B11: CE7-variant5 (antibody, V domains shown)
VH: B9 VH
VL: EIVMTQSPATLSVSPGERATLSCKANEDINNRLAWYQQKPGQAPRLLISGATNLVTGIPARFSGSGSGKEYTLTISSLQSEDFAVYYCQQYWSTPFTFGQGTKLEIKR
notes: Human IgG1 kappa, L234A L235A P331S; also called CE7-12-VHA-315-VLA; humanized variant 5
B12: CE7-variant4 (antibody)
heavy: QVQLVQSGAEVKKPGASVKVSCKASGYTFTGYWMHWVRQAPGQGLEWIGEINPSNGRTNYNERFKSRVTLTVDKSISTAYMELSRLRSDDTAVYFCARDYYGTSYNFDYWGQGTLVTVSSASTKGPSVFPLAPSSKSTSGGTAALGCLVKDYFPEPVTVSWNSGALTSGVHTFPAVLQSSGLYSLSSVVTVPSSSLGTQTYICNVNHKPSNTKVDKKVEPKSCDKTHTCPPCPAPEAAGGPSVFLFPPKPKDTLMISRTPEVTCVVVDVSHEDPEVKFNWYVDGVEVHNAKTKPREEQYNSTYRVVSVLTVLHQDWLNGKEYKCKVSNKALPASIEKTISKAKGQPREPQVYTLPPSREEMTKNQVSLTCLVKGFYPSDIAVEWESNGQPENNYKTTPPVLDSDGSFFLYSKLTVDKSRWQQGNVFSCSVMHEALHNHYTQKSLSLSPGK
light: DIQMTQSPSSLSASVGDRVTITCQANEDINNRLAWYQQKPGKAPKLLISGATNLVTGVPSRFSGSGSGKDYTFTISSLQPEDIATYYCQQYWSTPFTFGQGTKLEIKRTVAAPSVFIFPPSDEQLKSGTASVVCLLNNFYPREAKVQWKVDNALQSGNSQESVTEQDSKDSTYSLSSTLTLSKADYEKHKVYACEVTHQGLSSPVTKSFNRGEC
notes: Human IgG1 kappa, L234A L235A P331S; also called CE7-12-VHA-133-VLB; humanized variant 4
B13: CE7-variant6 (antibody, V domains shown)
VH: B9 VH
VL: B11 VL with K24R, Y71F
notes: Human IgG1 kappa, L234A L235A P331S; also called CE7-12-VHA-315-VLB; humanized variant 6
B14: CE7-variant23 (antibody, V domains shown)
VH: B9 VH with R63K, K65Q, S66G, F95Y
VL: B9 VL with K24R, T52S, T56S
notes: CE7-1-2-VHC + CE7-1-NL1-VLC; human IgG1 kappa, L234A L235A P331S N297A (aglycosylated); also called humanized variant 23
B15: CE7-variant11 (antibody, V domains shown)
VH: B9 VH with K65Q, S66G, F95Y
VL: B11 VL
notes: Human IgG1 kappa, L234A L235A P331S; also called CE7-12-VHB-315-VLA; humanized variant 11
B16: CE7-variant14 (antibody, V domains shown)
VH: B10 VH
VL: B9 VL with K24R
notes: Human IgG1 kappa, L234A L235A P331S; also called CE7-434-VHA-1NL1-VLB; humanized variant 14
B17: CE7-variant2 (antibody, V domains shown)
VH: B9 VH
VL: B9 VL with K24R
notes: Human IgG1 kappa, L234A L235A P331S; also called CE7-12-VHA-1NL1-VLB; humanized variant 2
B18: CE7-variant20 (antibody, V domains shown)
VH: B9 VH with K65Q, S66G, F95Y
VL: B9 VL with K24R, N26S, E27Q, D28G, T52S, T56S
notes: CE7-1-2-VHB + CE7-1-NL1-VLD; human IgG1 kappa, L234A L235A P331S N297A (aglycosylated); also called humanized variant 20
B19: CE7-variant8 (antibody, V domains shown)
VH: B9 VH with K65Q, S66G, F95Y
VL: B9 VL with K24R
notes: Human IgG1 kappa, L234A L235A P331S; also called CE7-12-VHB-1NL1-VLB; humanized variant 8
B20: CE7-variant24 (antibody, V domains shown)
VH: B9 VH with R63K, K65Q, S66G, F95Y
VL: B9 VL with K24R, N26S, E27Q, D28G, T52S, T56S
notes: CE7-1-2-VHC + CE7-1-NL1-VLD; human IgG1 kappa, L234A L235A P331S N297A (aglycosylated); also called humanized variant 24
B21: CE7-variant19 (antibody, V domains shown)
VH: B9 VH with K65Q, S66G, F95Y
VL: B9 VL with K24R, T52S, T56S
notes: CE7-1-2-VHB + CE7-1-NL1-VLC; human IgG1 kappa, L234A L235A P331S N297A (aglycosylated); also called humanized variant 19
B22: CE7-variant21 (antibody, V domains shown)
VH: B9 VH with R63K, K65Q, S66G, F95Y
VL: B9 VL
notes: CE7-1-2-VHC + CE7-1-NL1-VLA; human IgG1 kappa, L234A L235A P331S N297A (aglycosylated); also called humanized variant 21
B23: CE7-variant25 (antibody, V domains shown)
VH: B9 VH with I48M, R63K, K65Q, S66G, F95Y
VL: B9 VL
notes: CE7-1-2-VHD + CE7-1-NL1-VLA; human IgG1 kappa, L234A L235A P331S N297A (aglycosylated); also called humanized variant 25
B24: CE7-variant16 (antibody, V domains shown)
VH: B10 VH
VL: B9 VL with K24Q, L73F, F83I
notes: Human IgG1 kappa, L234A L235A P331S; also called CE7-434-VHA-133-VLB; humanized variant 16
B25: CE7-variant10 (antibody, V domains shown)
VH: B9 VH with K65Q, S66G, F95Y
VL: B9 VL with K24Q, L73F, F83I
notes: Human IgG1 kappa, L234A L235A P331S; also called CE7-12-VHB-133-VLB; humanized variant 10
B26: CE7-variant12 (antibody, V domains shown)
VH: B9 VH with K65Q, S66G, F95Y
VL: B11 VL with K24R, Y71F
notes: Human IgG1 kappa, L234A L235A P331S; also called CE7-12-VHB-315-VLB; humanized variant 12
B27: CE7-variant9 (antibody, V domains shown)
VH: B9 VH with K65Q, S66G, F95Y
VL: B9 VL with F83I
notes: Human IgG1 kappa, L234A L235A P331S; also called CE7-12-VHB-133-VLA; humanized variant 9
B28: CE7-variant15 (antibody, V domains shown)
VH: B10 VH
VL: B9 VL with F83I
notes: Human IgG1 kappa, L234A L235A P331S; also called CE7-434-VHA-133-VLA; humanized variant 15
B29: CE7-variant22 (antibody, V domains shown)
VH: B9 VH with R63K, K65Q, S66G, F95Y
VL: B9 VL with K24R
notes: CE7-1-2-VHC + CE7-1-NL1-VLB; human IgG1 kappa, L234A L235A P331S N297A (aglycosylated); also called humanized variant 22
B30: CE7-variant18 (antibody)
heavy: QVQLQQWGAGLLKPSETLSLTCAAYGYTFTGYWMHWIRQPPGKGLEWIGEINPSNGRTNYNERLKSRVTLSVDKSKNQASLKLSSVTAADTAVYFCARDYYGTSYNFDYWGQGTLVTVSSASTKGPSVFPLAPSSKSTSGGTAALGCLVKDYFPEPVTVSWNSGALTSGVHTFPAVLQSSGLYSLSSVVTVPSSSLGTQTYICNVNHKPSNTKVDKKVEPKSCDKTHTCPPCPAPEAAGGPSVFLFPPKPKDTLMISRTPEVTCVVVDVSHEDPEVKFNWYVDGVEVHNAKTKPREEQYNSTYRVVSVLTVLHQDWLNGKEYKCKVSNKALPASIEKTISKAKGQPREPQVYTLPPSREEMTKNQVSLTCLVKGFYPSDIAVEWESNGQPENNYKTTPPVLDSDGSFFLYSKLTVDKSRWQQGNVFSCSVMHEALHNHYTQKSLSLSPGK
light: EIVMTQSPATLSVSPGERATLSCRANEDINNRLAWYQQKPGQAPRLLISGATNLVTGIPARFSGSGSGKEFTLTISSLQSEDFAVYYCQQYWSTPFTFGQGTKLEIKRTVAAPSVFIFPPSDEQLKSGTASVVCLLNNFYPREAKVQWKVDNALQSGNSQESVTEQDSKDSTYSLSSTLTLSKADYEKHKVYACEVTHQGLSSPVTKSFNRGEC
notes: Human IgG1 kappa, L234A L235A P331S; also called CE7-434-VHA-315-VLB; humanized variant 18
B31: CE7-variant17 (antibody, V domains shown)
VH: B10 VH
VL: B11 VL
notes: Human IgG1 kappa, L234A L235A P331S; also called CE7-434-VHA-315-VLA; humanized variant 17
B32: CE7-variant4-AG (antibody)
heavy: B12 heavy with N300A
light: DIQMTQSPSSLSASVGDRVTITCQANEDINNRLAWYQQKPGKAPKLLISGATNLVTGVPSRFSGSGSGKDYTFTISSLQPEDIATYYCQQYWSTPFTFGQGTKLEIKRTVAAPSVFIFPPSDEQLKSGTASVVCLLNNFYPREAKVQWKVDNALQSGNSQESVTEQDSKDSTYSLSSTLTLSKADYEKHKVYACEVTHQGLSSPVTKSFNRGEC
notes: CE7-1-2-VHA (L234A L235A P331S N297A) + CE7-1-33-VLB, aglycosylated human IgG1 kappa; also called CE7-varant4-AG

Biological target: T1, L1-CAM recombinant protein (His Tag), human (human, UniProt P32004 20-1120)
T1 construct: Bought protein; also called CD171; human L1-CAM; not shown: His tag
T1 sequence (P32004 20-1120 limits assumed): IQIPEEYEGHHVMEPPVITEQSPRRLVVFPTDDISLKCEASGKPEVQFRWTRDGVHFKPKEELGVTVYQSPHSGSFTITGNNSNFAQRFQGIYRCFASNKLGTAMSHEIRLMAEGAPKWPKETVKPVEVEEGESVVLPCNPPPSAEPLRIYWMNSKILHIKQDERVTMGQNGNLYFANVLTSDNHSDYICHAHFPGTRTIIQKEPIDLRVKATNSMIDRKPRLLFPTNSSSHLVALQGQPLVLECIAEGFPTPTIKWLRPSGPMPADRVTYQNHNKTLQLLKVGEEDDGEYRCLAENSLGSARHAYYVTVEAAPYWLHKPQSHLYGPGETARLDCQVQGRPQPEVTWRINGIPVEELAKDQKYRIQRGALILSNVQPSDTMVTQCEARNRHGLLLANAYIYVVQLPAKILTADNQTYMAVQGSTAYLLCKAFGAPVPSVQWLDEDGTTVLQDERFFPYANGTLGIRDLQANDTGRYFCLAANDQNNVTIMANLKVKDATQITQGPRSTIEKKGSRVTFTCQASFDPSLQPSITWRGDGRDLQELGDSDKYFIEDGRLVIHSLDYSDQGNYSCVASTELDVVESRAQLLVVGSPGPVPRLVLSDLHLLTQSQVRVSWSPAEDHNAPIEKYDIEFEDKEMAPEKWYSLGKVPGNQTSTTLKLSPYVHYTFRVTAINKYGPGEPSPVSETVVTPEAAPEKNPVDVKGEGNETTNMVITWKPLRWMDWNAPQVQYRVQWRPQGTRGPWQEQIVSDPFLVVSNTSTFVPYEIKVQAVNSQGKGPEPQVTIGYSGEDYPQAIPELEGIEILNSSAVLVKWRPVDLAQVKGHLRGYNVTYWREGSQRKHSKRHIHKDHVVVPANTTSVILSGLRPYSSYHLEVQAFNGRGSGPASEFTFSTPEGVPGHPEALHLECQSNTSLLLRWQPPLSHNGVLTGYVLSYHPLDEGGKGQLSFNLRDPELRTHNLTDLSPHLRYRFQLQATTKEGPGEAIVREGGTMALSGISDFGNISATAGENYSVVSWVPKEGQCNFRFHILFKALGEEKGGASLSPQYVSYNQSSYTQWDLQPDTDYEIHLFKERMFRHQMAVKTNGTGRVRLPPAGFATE
Experiment: ELISA, human L1-CAM coated at 2 µg/ml

| EC50 [µg/mL] | Binder |
| --- | --- |
| 0.0362 | B1 |
| 0.0246 | B2 |
| 0.0335 | B3 |
| 0.0394 | B4 |
| 0.0328 | B5 |
| 0.0268 | B6 |
| 0.0459 | B7 |
| 0.0318 | B8 |
| 0.0288 | B9 |
| 0.05 | B10 |
| 0.0282 | B11 |
| 0.012 | B12 |
| 0.0255 | B13 |
| 0.037 | B14 |
| 0.0148 | B15 |
| 0.0157 | B16 |

| EC50 [µg/mL] | Binder |
| --- | --- |
| 0.0128 | B17 |
| 0.0317 | B18 |
| 0.0129 | B19 |
| 0.0396 | B20 |
| 0.0335 | B21 |
| 0.0299 | B22 |
| 0.0272 | B23 |
| 0.0132 | B24 |
| 0.0136 | B25 |
| 0.0126 | B26 |
| 0.0197 | B27 |
| 0.0112 | B28 |
| 0.024 | B29 |
| 0.00968 | B30 |
| 0.0108 | B31 |

Biological target: T1, L1-CAM recombinant protein (His Tag), …
Experiment: SPR (Biacore 8K); L1-CAM immobilised on CM5 chip, antibody as analyte
Method: In the SPR experiment, antigen is immobilized on sensor chip and solutions containing antibody at various concentrations are flown over the antigen. real time measurement of kinetics parameters is performed, including their on/off rates (ka and kd). Based thereon, binding affinity constant KD is determined.

| Kd [pM] | koff [s⁻¹] | kon [M⁻¹ s⁻¹] | Binder |
| --- | --- | --- | --- |
| 0.664 | 8.18e-07 | 1.23e+06 | B32 |
